Bridges are numbered along the chain shown (N, C = ends). Where no end group is shown, it is not given here. [ ]: non-standard residue; d: D form. The star is where a group is joined. Acetyl(2-(4-imidazolyl)) = O=C(Cc1c[nH]cn1)*; Aib = CC(C)(N)C(=O)O
Legend:
Test in all cases: cell-based or functional assay
human GLP-1 receptor = human GLP-1 receptor (human, UniProt P43220 24-463)
human GCG receptor = human GCG receptor (human, UniProt P47871 26-477)
human GIP receptor = target: T1, human GIP receptor (human, UniProt P48546 22-466)
T1 sequence (looked up): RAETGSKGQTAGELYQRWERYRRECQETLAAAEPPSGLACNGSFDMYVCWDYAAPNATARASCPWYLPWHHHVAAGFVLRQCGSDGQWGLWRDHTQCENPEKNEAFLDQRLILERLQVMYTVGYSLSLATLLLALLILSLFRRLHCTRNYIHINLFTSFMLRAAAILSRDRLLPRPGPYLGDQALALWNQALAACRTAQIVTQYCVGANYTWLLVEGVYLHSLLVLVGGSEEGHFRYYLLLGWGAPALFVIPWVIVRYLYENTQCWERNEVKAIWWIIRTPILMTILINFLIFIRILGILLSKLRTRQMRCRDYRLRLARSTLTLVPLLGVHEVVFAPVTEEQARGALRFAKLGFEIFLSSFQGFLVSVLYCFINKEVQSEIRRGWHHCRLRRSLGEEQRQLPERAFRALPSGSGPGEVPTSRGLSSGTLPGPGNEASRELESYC

human GCG receptor, sequence (P47871 26-477): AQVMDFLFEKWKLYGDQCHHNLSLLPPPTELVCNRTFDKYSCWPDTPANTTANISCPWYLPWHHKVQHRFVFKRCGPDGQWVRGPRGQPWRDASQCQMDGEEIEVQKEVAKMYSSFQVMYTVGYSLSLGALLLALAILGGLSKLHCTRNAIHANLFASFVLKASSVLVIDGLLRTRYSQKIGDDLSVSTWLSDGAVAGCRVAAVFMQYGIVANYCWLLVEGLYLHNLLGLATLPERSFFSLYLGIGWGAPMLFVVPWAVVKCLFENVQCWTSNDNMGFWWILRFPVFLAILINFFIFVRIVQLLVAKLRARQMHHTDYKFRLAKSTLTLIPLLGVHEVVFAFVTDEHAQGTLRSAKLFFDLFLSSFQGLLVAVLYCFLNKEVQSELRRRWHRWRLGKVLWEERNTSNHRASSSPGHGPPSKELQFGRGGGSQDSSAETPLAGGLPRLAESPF

Y[Aib]QGTFTSDYSKYLDEKRAKEFVQWLLDHHCSSGQPPPS (bridge 16-20) [triple agonist of SEQ ID NO: 43]
In vitro activity (%) vs. GLP-1, cAMP EC50 (human GLP-1 receptor): 12.6%
In vitro activity (%) vs. Glucagon, cAMP EC50 (human GCG receptor): 88.4%
In vitro activity (%) vs. GIP, cAMP EC50 (human GIP receptor): 3.7%

H[Aib]QGTFTSDVSSYLLGQQQKEFIAWLVKGC [triple agonist of SEQ ID NO: 4]
In vitro activity (%) vs. GLP-1, cAMP EC50 (human GLP-1 receptor): 8.5%
In vitro activity (%) vs. Glucagon, cAMP EC50 (human GCG receptor): < 0.1%
In vitro activity (%) vs. GIP, cAMP EC50 (human GIP receptor): < 0.1%

H[Aib]QGTFTSDYSKCLDEKRAKEFVQWLLDHHPSSGQPPPS (bridge 16-20; ends not checked) [triple agonist of SEQ ID NO: 65]
In vitro activity (%) vs. GLP-1, cAMP EC50 (human GLP-1 receptor): 95.4%
In vitro activity (%) vs. Glucagon, cAMP EC50 (human GCG receptor): 25.2%
In vitro activity (%) vs. GIP, cAMP EC50 (human GIP receptor): 11.6%

H[Aib]QGTFTSDVSSYLDGQAAKEFIAWLVKGC [triple agonist of SEQ ID NO: 1]
In vitro activity (%) vs. GLP-1, cAMP EC50 (human GLP-1 receptor): 3.2%
In vitro activity (%) vs. Glucagon, cAMP EC50 (human GCG receptor): < 0.1%
In vitro activity (%) vs. GIP, cAMP EC50 (human GIP receptor): < 0.1%

H[Aib]QGTFTSDYSKYLDEKRQKEFVQWLLNTC (bridge 16-20; ends not checked) [triple agonist of SEQ ID NO: 51]
In vitro activity (%) vs. GLP-1, cAMP EC50 (human GLP-1 receptor): 14.4%
In vitro activity (%) vs. Glucagon, cAMP EC50 (human GCG receptor): 2%
In vitro activity (%) vs. GIP, cAMP EC50 (human GIP receptor): 0.1%

HGQGTFTSDCSKQLDGQAAQEFVAWLLAGGPSSGAPPPS [triple agonist of SEQ ID NO: 44]
In vitro activity (%) vs. GLP-1, cAMP EC50 (human GLP-1 receptor): 1.3%
In vitro activity (%) vs. Glucagon, cAMP EC50 (human GCG receptor): < 0.1%
In vitro activity (%) vs. GIP, cAMP EC50 (human GIP receptor): < 0.1%

HGQGTFTSDCSKYLDEQHAQEFVAWLLAGGPSSGAPPPS [triple agonist of SEQ ID NO: 46]
In vitro activity (%) vs. GLP-1, cAMP EC50 (human GLP-1 receptor): 1.4%
In vitro activity (%) vs. Glucagon, cAMP EC50 (human GCG receptor): < 0.1%
In vitro activity (%) vs. GIP, cAMP EC50 (human GIP receptor): < 0.1%

HGQGTFTSDCSKYLDGQRAQDFVNWLLAGGPSSGAPPPS [triple agonist of SEQ ID NO: 48]
In vitro activity (%) vs. GLP-1, cAMP EC50 (human GLP-1 receptor): 1.5%
In vitro activity (%) vs. Glucagon, cAMP EC50 (human GCG receptor): < 0.1%
In vitro activity (%) vs. GIP, cAMP EC50 (human GIP receptor): < 0.1%

HGQGTFTSDCSKYLDGQRAQEFVAWLLAGGPSSGAPPPS [triple agonist of SEQ ID NO: 47]
In vitro activity (%) vs. GLP-1, cAMP EC50 (human GLP-1 receptor): 2.4%
In vitro activity (%) vs. Glucagon, cAMP EC50 (human GCG receptor): < 0.1%
In vitro activity (%) vs. GIP, cAMP EC50 (human GIP receptor): < 0.1%

HGQGTFTSDCSKYMDGQAAQDFVAWLLAGGPSSGAPPPS [triple agonist of SEQ ID NO: 45]
In vitro activity (%) vs. GLP-1, cAMP EC50 (human GLP-1 receptor): 6.6%
In vitro activity (%) vs. Glucagon, cAMP EC50 (human GCG receptor): < 0.1%
In vitro activity (%) vs. GIP, cAMP EC50 (human GIP receptor): < 0.1%

H[Aib]EGTFTSDYSIAMDEIHQKDFVNWLLAQC (bridge 16-20) [triple agonist of SEQ ID NO: 53]
In vitro activity (%) vs. GLP-1, cAMP EC50 (human GLP-1 receptor): 161%
In vitro activity (%) vs. Glucagon, cAMP EC50 (human GCG receptor): 8.4%
In vitro activity (%) vs. GIP, cAMP EC50 (human GIP receptor): 1.3%

{Acetyl(2-(4-imidazolyl))}-[Aib]QGTFTSDYSICMDEIHQKDFVNWLLNTK (bridge 15-19) [triple agonist of SEQ ID NO: 49]
In vitro activity (%) vs. GLP-1, cAMP EC50 (human GLP-1 receptor): 29.8%
In vitro activity (%) vs. Glucagon, cAMP EC50 (human GCG receptor): < 0.1%
In vitro activity (%) vs. GIP, cAMP EC50 (human GIP receptor): 3.3%

H[Aib]QGTFTSDYSIAMDEIHQKDFVNWLLNTC (bridge 16-20; ends not checked) [triple agonist of SEQ ID NO: 57]
In vitro activity (%) vs. GLP-1, cAMP EC50 (human GLP-1 receptor): 11.7%
In vitro activity (%) vs. Glucagon, cAMP EC50 (human GCG receptor): < 0.1%
In vitro activity (%) vs. GIP, cAMP EC50 (human GIP receptor): 0.3%

[Acetyl(2-(4-imidazolyl))][Aib]QGTFTSDYSIAMDEIACKDFVNWLLNTK (bridge 16-20; ends not checked) [triple agonist of SEQ ID NO: 61]
In vitro activity (%) vs. GLP-1, cAMP EC50 (human GLP-1 receptor): 59.8%
In vitro activity (%) vs. Glucagon, cAMP EC50 (human GCG receptor): < 0.1%
In vitro activity (%) vs. GIP, cAMP EC50 (human GIP receptor): 2.8%

H[Aib]QGTFTSDYSIAMDEIHQKDFVNWLLAQC (bridge 16-20) [triple agonist of SEQ ID NO: 55]
In vitro activity (%) vs. GLP-1, cAMP EC50 (human GLP-1 receptor): 27.1%
In vitro activity (%) vs. Glucagon, cAMP EC50 (human GCG receptor): 0.7%
In vitro activity (%) vs. GIP, cAMP EC50 (human GIP receptor): 2.4%

Y[Aib]QGTFTSDYSKYLDECAAKEFVQWLLDHHPSSGQPPPS (bridge 16-20; ends not checked) [triple agonist of SEQ ID NO: 64]
In vitro activity (%) vs. GLP-1, cAMP EC50 (human GLP-1 receptor): 64.6%
In vitro activity (%) vs. Glucagon, cAMP EC50 (human GCG receptor): 60.1%
In vitro activity (%) vs. GIP, cAMP EC50 (human GIP receptor): 92.9%

H[Aib]QGTFTSDYSIAMDEIHQKDFVNWLLNTKC (bridge 16-20) [triple agonist of SEQ ID NO: 35]
In vitro activity (%) vs. GLP-1, cAMP EC50 (human GLP-1 receptor): 7.5%
In vitro activity (%) vs. Glucagon, cAMP EC50 (human GCG receptor): < 0.1%
In vitro activity (%) vs. GIP, cAMP EC50 (human GIP receptor): 1.3%

H[Aib]QGTFTSDVSKYLDGQAAKEFVAWLLKGC (ends and bridges not checked) [triple agonist of SEQ ID NO: 7]
In vitro activity (%) vs. GLP-1, cAMP EC50 (human GLP-1 receptor): 13.7%
In vitro activity (%) vs. Glucagon, cAMP EC50 (human GCG receptor): < 0.1%
In vitro activity (%) vs. GIP, cAMP EC50 (human GIP receptor): < 0.1%

H[Aib]QGTFTSDYSKYLDEKRQKEFVQWLLNTKC (bridge 16-20; ends not checked) [triple agonist of SEQ ID NO: 58]
In vitro activity (%) vs. GLP-1, cAMP EC50 (human GLP-1 receptor): 39.1%
In vitro activity (%) vs. Glucagon, cAMP EC50 (human GCG receptor): 2.6%
In vitro activity (%) vs. GIP, cAMP EC50 (human GIP receptor): 0.2%

[Acetyl(2-(4-imidazolyl))][Aib]QGTFTSDYSICMDEKHQKDFVNWLLNTK (bridge 16-20; ends not checked) [triple agonist of SEQ ID NO: 59]
In vitro activity (%) vs. GLP-1, cAMP EC50 (human GLP-1 receptor): 40.3%
In vitro activity (%) vs. Glucagon, cAMP EC50 (human GCG receptor): < 0.1%
In vitro activity (%) vs. GIP, cAMP EC50 (human GIP receptor): 4%

H[Aib]QGTFTSDYSKYLDEKRAKEFVQWLLDHHPSSGQPPPSC (bridge 16-20; ends not checked) [triple agonist of SEQ ID NO: 50]
In vitro activity (%) vs. GLP-1, cAMP EC50 (human GLP-1 receptor): 67.4%
In vitro activity (%) vs. Glucagon, cAMP EC50 (human GCG receptor): 50.5%
In vitro activity (%) vs. GIP, cAMP EC50 (human GIP receptor): 2.7%

[Acetyl(2-(4-imidazolyl))][Aib]QGTFTSDYSIAMDEKHCKDFVNWLLNTK (bridge 16-20; ends not checked) [triple agonist of SEQ ID NO: 60]
In vitro activity (%) vs. GLP-1, cAMP EC50 (human GLP-1 receptor): 106%
In vitro activity (%) vs. Glucagon, cAMP EC50 (human GCG receptor): < 0.1%
In vitro activity (%) vs. GIP, cAMP EC50 (human GIP receptor): 8.2%

Y[Aib]QGTFTSDYSKYLDEKRAKEFVQWLLDHHPSSGQPPPSC (bridge 16-20) [triple agonist of SEQ ID NO: 42]
In vitro activity (%) vs. GLP-1, cAMP EC50 (human GLP-1 receptor): 33.9%
In vitro activity (%) vs. Glucagon, cAMP EC50 (human GCG receptor): 206%
In vitro activity (%) vs. GIP, cAMP EC50 (human GIP receptor): 7.8%

H[Aib]QGTFTSDYSKYLDEKRQKEFVQWLLDTC (bridge 16-20; ends not checked) [triple agonist of SEQ ID NO: 52]
In vitro activity (%) vs. GLP-1, cAMP EC50 (human GLP-1 receptor): 44.1%
In vitro activity (%) vs. Glucagon, cAMP EC50 (human GCG receptor): 7.5%
In vitro activity (%) vs. GIP, cAMP EC50 (human GIP receptor): 0.3%

H[Aib]QGTFTSDYSKYLDEKRQKEFVNWLLAQKC (bridge 16-20) [triple agonist of SEQ ID NO: 34]
In vitro activity (%) vs. GLP-1, cAMP EC50 (human GLP-1 receptor): 19.1%
In vitro activity (%) vs. Glucagon, cAMP EC50 (human GCG receptor): 0.92%
In vitro activity (%) vs. GIP, cAMP EC50 (human GIP receptor): 0.6%

H[Aib]QGTFTSDVSSYLDGQAAKEFVAWLLKGC (ends and bridges not checked) [triple agonist of SEQ ID NO: 6]
In vitro activity (%) vs. GLP-1, cAMP EC50 (human GLP-1 receptor): 17%
In vitro activity (%) vs. Glucagon, cAMP EC50 (human GCG receptor): < 0.1%
In vitro activity (%) vs. GIP, cAMP EC50 (human GIP receptor): < 0.1%

H[Aib]EGTFTSDYSIAMDEIHQKDFVDWLLAEC (bridge 16-20; ends not checked) [triple agonist of SEQ ID NO: 54]
In vitro activity (%) vs. GLP-1, cAMP EC50 (human GLP-1 receptor): 30.6%
In vitro activity (%) vs. Glucagon, cAMP EC50 (human GCG receptor): 1.4%
In vitro activity (%) vs. GIP, cAMP EC50 (human GIP receptor): 0.1%

H[Aib]QGTFTSDVSSYLLGQQQKEFIAWLVKGGGPSSGAPPPSC [triple agonist of SEQ ID NO: 5]
In vitro activity (%) vs. GLP-1, cAMP EC50 (human GLP-1 receptor): 42.1%
In vitro activity (%) vs. Glucagon, cAMP EC50 (human GCG receptor): < 0.1%
In vitro activity (%) vs. GIP, cAMP EC50 (human GIP receptor): < 0.1%

Reference: patent publication US20220088148A1 (HANMI PHARM, published 2022)
